Patent US20220112249A1 (OXFORD UNIVERSITY INNOVATION, published 2022)

Molecular target: T1, fHbp V1.1 with PorA VR2 P1.16 loop in position 5 (P5) (Neisseria meningitidis, UniProt E6MV22 20-274)
T1 sequence: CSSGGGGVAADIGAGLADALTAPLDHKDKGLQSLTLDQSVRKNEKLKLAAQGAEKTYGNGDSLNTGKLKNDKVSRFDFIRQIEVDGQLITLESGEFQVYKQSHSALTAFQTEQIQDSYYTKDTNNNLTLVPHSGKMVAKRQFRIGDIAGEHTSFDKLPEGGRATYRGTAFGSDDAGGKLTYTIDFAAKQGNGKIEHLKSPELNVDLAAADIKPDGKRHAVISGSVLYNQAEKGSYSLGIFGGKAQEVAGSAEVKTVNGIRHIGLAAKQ
Test: SPR (BIAcore), fHbp:PorA coupled to the chip, CFH (fH67) flowed over

B1: Complement Factor H (CFH) domains 6 and 7 (other)
chain: TLKPCDYPDIKHGGLYHENMRRPYFPVAVGKYYSYYCDEHFETPSGSYWDHIHCTQDGWSPAVPCLRKCYFPYLENGYNQNYGRKFVQGKSIDVACHPGYALPKAQTTVTCMENGWSPTPRCI
notes: domain: fH67 (CFH domains 6-7); also called fH67
- binding result: no binding (tested: 0.5-32 nM)
